Changes are numbered by the printed parent chain.

This note sets out measurements from US20090111753A1, “Nogo-A Polypeptide Fragments, Variant Nogo Receptor-1 Polypeptides, and Uses Thereof” (Yale University, priority 2004, published 2009).

Sequences and labels used below:
T1: AP-Nogo66 (Homo sapiens, UniProt Q9NQC3)
T1 construct: made in house; NgR mutants: COS-7
T1 sequence (Q9NQC3 1055-1120 limits assumed): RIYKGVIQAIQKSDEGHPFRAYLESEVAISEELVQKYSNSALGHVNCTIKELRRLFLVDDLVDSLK

T2: AP-Lingo-1 (Homo sapiens, UniProt Q96FE5)
T2 construct: made in house; NgR mutants: COS-7
T2 sequence (Q96FE5 40-538 limits assumed): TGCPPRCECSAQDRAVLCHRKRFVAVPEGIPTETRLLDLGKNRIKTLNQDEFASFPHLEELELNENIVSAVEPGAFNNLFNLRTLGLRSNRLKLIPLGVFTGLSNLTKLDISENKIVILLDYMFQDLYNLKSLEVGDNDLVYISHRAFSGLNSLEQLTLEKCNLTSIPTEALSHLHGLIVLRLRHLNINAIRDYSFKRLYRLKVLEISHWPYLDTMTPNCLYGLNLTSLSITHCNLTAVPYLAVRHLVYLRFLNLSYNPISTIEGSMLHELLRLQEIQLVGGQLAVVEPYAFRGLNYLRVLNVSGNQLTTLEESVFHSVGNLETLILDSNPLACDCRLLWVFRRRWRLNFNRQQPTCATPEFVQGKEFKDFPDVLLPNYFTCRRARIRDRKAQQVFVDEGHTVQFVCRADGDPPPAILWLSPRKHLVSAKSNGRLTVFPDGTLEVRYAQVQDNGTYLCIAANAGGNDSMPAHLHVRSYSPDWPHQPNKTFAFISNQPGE

T3: AP-B4C (Homo sapiens, UniProt Q9NQC3)
T3 construct: a.a; 950-1018 (AmNg B4C); made in house; host or cells: AP ligand: HEK293T conditioned medium; NgR mutants: COS-7
T3 sequence (Q9NQC3 950-1018): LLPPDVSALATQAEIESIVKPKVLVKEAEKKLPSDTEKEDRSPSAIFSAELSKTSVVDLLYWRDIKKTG

B1: 220, 223, 224: human NgR1 mutant, listed residues mutated to alanine (protein)
chain: CPGACVCYNEPKVTTSCPQQGLQAVPVGIPAASQRIFLHGNRISHVPAASFRACRNLTILWLHSNVLARIDAAAFTGLALLEQLDLSDNAQLRSVDPATFHGLGRLHTLHLDRCGLQELGPGLFRGLAALQYLYLQDNALQALPDDTFRDLGNLTHLFLHGNRISSVPERAFRGLHSLDRLLLHQNRVAHVHPAAFAALGRLMTLYLFANNLSALPTEALAPLRALQYLRLNDNPWVCDCRARPLWAWLQKFRGSSSEVPCSLPQRLAGRDLKRLAANDLQGCAVATGPYHPIWTGRATDEEPLGLPKCCQPDAADKASVLEPGRPASAGNALKGRVPPGDSPPGNGSGPRHINDSPFGTLPGSAEPPLTAVRPEGSEPPGFPTSGPRRRPGCSRKNRTRSHCRLGQAGSGGGGTGDSEGSGALPSLTCSLTPLGLALVLWTVLGPC
B2: 63, 65, 87, 89: human NgR1 mutant, listed residues mutated to alanine (protein)
chain: B1 chain with F37A, H39A, W61A, H63A, A194H, A197R, A198D
B3: 61, 108, 131: human NgR1 mutant, listed residues mutated to alanine (protein)
chain: B1 chain with R35A, E82A, R105A, A194H, A197R, A198D
B4: 237, 256, 259: human NgR1 mutant, listed residues mutated to alanine (protein)
chain: B1 chain with A194H, A197R, A198D, N211A, R230A, D233A
B5: 256, 259, 284: human NgR1 mutant, listed residues mutated to alanine (protein)
chain: B1 chain with A194H, A197R, A198D, R230A, D233A, E258A
B6: 237, 256, 284: human NgR1 mutant, listed residues mutated to alanine (protein)
chain: B1 chain with A194H, A197R, A198D, N211A, R230A, E258A

The first assay has as its system NgR ligands. The assay can be described thus: Binding of alanine substituted NgR mutants to NgR ligands, summary categories. The note with it: AP-Nogo66, AP-B4C, AP-B4C66, AP-Lingo-1, AP-OMgp and AP-MAG; compared to wild type NgR. The essentials:
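AP-fused ligands (Nogo66, B4C, B4C66, Lingo-1, OMgp, MAG) were assayed against 74 Ala-substitution mutants of human NgR1 targeting surface charged patches, glycosylation sites and predicted binding regions, plus the D259N variant. Outcomes were grouped into categories: binding lost for all ligands, retained for all, or ligand-selective.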
Turning to B1, the “ligand binding category of NgR mutant (Table II)” value (“ligand binding category” for short) is given as “Differential binding”.

As to B2, the “ligand binding category” value is reported as “Differential binding”.

Turning to B3, the “ligand binding category” value is “Differential binding”.

For B4, the “ligand binding category” value is recorded as “Differential binding”.

For B5, the “ligand binding category” value was “Differential binding”.

Take B6: the “ligand binding category” value is given as “Differential binding”.

In the next assay the test system is AP-MAG. The assay can be described thus: Binding of AP-MAG to COS-7 cells expressing NgR mutants. Details: key: ++: WT level; +: weaker than wild type; trace binding; −: no binding. The note with it: AP-MAG 30 nM; level of binding compared to wild type NgR. How it is done:
(§1) FIG. 4A. […] Binding of AP or AP fused NgR ligands to COS-7 cells expressing different NgR mutants as indicated. The concentrations of ligands applied were: AP, 30 nM; AP-Ng66, 5 nM; AP-Ng33, 10 nM; AP-B4C, 10 nM; AP-B4C66, 0.5 nM; AP-Lingo-1, 10 nM; AP-OMGP, 10 nM; AP-MAG, 30 nM. These concentrations are close to the binding Kd of these proteins to NgR so that any […] is reflected linearly in staining.
(§2) FIG. 4B. AP binding of NgR ligands to NgR mutants expressed as percentage of wild type NgR. AP after incubation with AP fused ligands, AP bound to COS-7 cells expressing NgR or NgR mutants were stained and measured.
(§3) To better define how multiple ligands bind to the NgR protein, we examined a series of Ala-substituted NgR for ligand binding activity. NgR mutagenesis was done using the Quick Change Multisite Directed Mutagenesis Kit (Stratagene catalog #200514). Human NgR1 was used as a template. Ala substitutions were generated for each of the charged residues predicted to be solvent accessible at the surface of the ligand binding domain of NgR (Barton, W. A., et al., Embo J. 22:3291-3302 (2003); He, X. L., et al., Neuron 38:177-185 (2003)). We generated mutants in which 1-8 surface residues localized within 5 A of one another were Ala-substituted. Because of the coiling nature of the LRR structure, as residues juxtaposed on the protein surface are commonly separated by approximately 25 residues in the primary structure. In addition to mutations in specific charged surface patches, other mutations were targeted to glycosylation sites and to regions predicted to be involved in ligand binding based on the NgR structure (Barton, W. A., et al., Embo J. 22:3291-3302 (2003); He, X. L., et al., Neuron 38:177-185 (2003)). In addition, a variant corresponding to a human polymorphism was examined (D259N). None of the mutations altered the Leu residues that define the LRR structure itself or the Cys residues critical in the amino and carboxyl terminal capping domains. The vast majority of such Ala surface substitution mutants were expressed as immunoreactive polypeptides with a molecular weight and an expression level indistinguishable from wild type NgR (FIG. 4C and data not shown).
(§4) This collection of 74 individual NgR mutants was interrogated for AP-Nogo-66, AP-Amino-Nogo-B4C, AP-MAG, AP-OMgp, and AP-Lingo-1 binding. AP-Nogo66, AP-MAG, AP-OMGP and AP-Lingo-1 constructs are described elsewhere (Fournier, A. E., et al., Nature 409:341-346 (2001); Liu, B. P., et al., Science 297:1190-1193 (2002); Mi, S., et al., Nat. Neurosci. 7:221-228 (2004); Wang, K. C., et al., Nature 417:941-944 (2002b)). The properties of the NgR mutants fell into one of three major categories (Table II and FIG. 5). A number of Ala substituted NgR polypeptides bound all of the ligands at wild type levels. […] In addition, a significant extent of the concave surface is dispensable for ligand binding.
(§5) Binding of Alanine substituted NgR mutants to NgR ligands were compared to wild type NgR and the levels of binding were categorized as ++ (WT level), + (weaker than wild type), tr (trace binding), − (no binding), N/A (not determined). NgR mutant proteins were also subjected to SDS-PAGE and probed by anti-NgR antibodies. Mutants with expression level similar to WT NgR were labeled as “y”.
On to B1, for which the MAG result was “tr”.

For B2, the MAG entry was “−”.

For B3, the MAG result is given as “−”.

Regarding B4, the MAG result is “−”.

For B5, the MAG entry was “−”.

In the case of B6, the MAG entry is “−”.

For the next assay, the system named is AP-OMgp. Nature of the assay: Binding of AP-OMgp to COS-7 cells expressing NgR mutants. Also noted: key: ++: WT level; +: weaker than wild type; trace binding; −: no binding. Particulars: AP-OMGP 10 nM; level of binding compared to wild type NgR. How it is done: as §1, §2, §3, §4, §5
As to B1, the OMgp entry is recorded as “−”.

Consider B2, for which the OMgp result is reported as “+”.

B3: the OMgp entry is “−”.

In the case of B4, the OMgp result is listed as “tr”.

As to B5, the OMgp entry is “+”.

Regarding B6, the OMgp result is reported as “+”.

The next assay has as its target T1, AP-Nogo66. Nature of the assay: Binding of AP-Nogo66 to COS-7 cells expressing NgR mutants. Also noted: key: ++: WT level; +: weaker than wild type; trace binding; −: no binding. Particulars: AP-Ng66 5 nM; level of binding compared to wild type NgR. As to the method:
as §1, §2, §3, §4, §5
As for B1, the Ng66 entry is “+”.

Turning to B2, the Ng66 entry was “++”.

For B3, the Ng66 entry was “tr”.

B4: the Ng66 result is reported as “tr”.

In the case of B5, the Ng66 result is on record as “+”.

In the case of B6, the Ng66 result is “++”.

A further assay relates to AP-B4C66. The assay can be described thus: Binding of AP-B4C66 to COS-7 cells expressing NgR mutants. Also noted: key: ++: WT level; +: weaker than wild type; trace binding; −: no binding. The note with it: AP-B4C66 0.5 nM; level of binding compared to wild type NgR. How it is done: as §1, §2, §3, §4, §5
With B1, the B4C-66 entry was “+”.

As to B2, the B4C-66 entry is on record as “++”.

In the case of B3, the B4C-66 result is “+”.

Take B4: the B4C-66 entry is recorded as “+”.

For the molecule B5, the B4C-66 entry was “++”.

On to B6, for which the B4C-66 result is “++”.

The next assay concerns the target T2, AP-Lingo-1. The assay can be described thus: Binding of AP-Lingo-1 to COS-7 cells expressing NgR mutants. The note with it: AP-Lingo-1 10 nM; level of binding compared to wild type NgR. Also noted: key: ++: WT level; +: weaker than wild type; trace binding; −: no binding. How it is done: as §1, §2, §3, §4, §5
Regarding B1, the Lingo-1 entry is listed as “−”.

For the molecule B2, the Lingo-1 entry is on record as “−”.

B3: the Lingo-1 entry is given as “−”.

Take B4: the Lingo-1 result is reported as “+”.

Turning to B5, the Lingo-1 result is on record as “++”.

Turning to B6, the Lingo-1 entry is “++”.

In the next assay the target is T3, AP-B4C. Nature of the assay: Binding of AP-B4C to COS-7 cells expressing NgR mutants. Details: key: ++: WT level; +: weaker than wild type; trace binding; −: no binding. The note with it: AP-B4C 10 nM; level of binding compared to wild type NgR. How it is done: as §1, §2, §3, §4, §5
With B1, the B4C result is reported as “+”.

In the case of B2, the B4C result is “++”.

For B3, the B4C entry was “+”.

Take B4: the B4C result is on record as “tr”.

Consider B5, for which the B4C entry was “+”.

On to B6, for which the B4C result is “++”.
